# From PMC3356575
# Assays:
# Assay type in all cases: biochemical, Bacteroides thetaiotaomicron
# Conditions in all cases: 50 mM HEPES pH 7.0, 5 mM MgCl2, 37 °C
# [1] = substrate: Cc1ncc(COP(=O)(O)O)c(C=O)c1O; assay: initial rates, phosphate release
# [2] = substrate: Nc1ncnc2c1ncn2[C@@H]1O[C@H](COP(=O)(O)OP(=O)(O)O)[C@@H](O)[C@H]1O; assay: initial rates, phosphate release
# [3] = substrate: O=P(O)(O)OCC(O)CO; assay: initial rates, phosphate release
# [4] = substrate: O=P(O)(O)OC[C@@H](O)[C@@H](O)[C@H](O)[C@@H](O)CO; assay: initial rates, phosphate release
# [5] = substrate: O=P(O)(O)OC[C@H]1O[C@@](CO)(O[C@H]2O[C@H](CO)[C@@H](O)[C@H](O)[C@H]2O)[C@@H](O)[C@@H]1O; assay: initial rates, phosphate release
# [6] = substrate: O=P(O)(O)OC[C@H]1O[C@H](O[C@H]2O[C@H](CO)[C@@H](O)[C@H](O)[C@H]2O)[C@H](O)[C@@H](O)[C@@H]1O; assay: initial rates, phosphate release
# purified protein = substrate: O=[N+]([O-])c1ccc(OP(=O)(O)O)cc1; assay: purified protein
protein,measurement,setting,value
BT1666 (Bacteroides thetaiotaomicron VPI-5482) (protein) MIKVLLLDVDGTLLSFETHKVSQSSIDALKKVHDSGIKIVIATGRAASDLHEIDAVPYDGVIALNGAECVLRDGSVIRKVAIPAQDFRKSMELAREFDFAVALELNEGVFVNRLTPTVEQIAGIVEHPVPPVVDIEEMFERKECCQLCFYFDEEAEQKVMPLLSGLSATRWHPLFADVNVAGTSKATGLSLFADYYRVKVSEIMACGDGGNDIPMLKAAGIGVAMGNASEKVQSVADFVTDTVDNSGLYKALKHFGVI,Km,[1],4.1 ± 0.5 mM
same,kcat,[1],0.29 ± 0.01 s⁻¹
same,kcat/Km,[1],70 M⁻¹ s⁻¹
same,Km,[2],1.0 (± 2) × 10^1 mM
same,kcat,[2],0.45 ± 0.06 s⁻¹
same,kcat/Km,[2],45 M⁻¹ s⁻¹
same,Km,[3],5.3 ± 0.7 mM
same,kcat,[3],0.42 ± 0.03 s⁻¹
same,kcat/Km,[3],79 M⁻¹ s⁻¹
same,Km,[4],6.5 ± 3 mM
same,kcat,[4],0.42 ± 0.06 s⁻¹
same,kcat/Km,[4],65 M⁻¹ s⁻¹
same,Km,[5],1.4 ± 0.3 mM
same,kcat,[5],0.11 ± 0.01 s⁻¹
same,kcat/Km,[5],79 M⁻¹ s⁻¹
same,Km,[6],2.2 ± 0.4 mM
same,kcat,[6],0.3 ± 0.03 s⁻¹
same,kcat/Km,[6],140 M⁻¹ s⁻¹
same,Km,purified protein,0.51 ± 0.1 mM
same,kcat,purified protein,0.055 ± 0.007 s⁻¹
same,kcat/Km,purified protein,110 M⁻¹ s⁻¹
